The target in one assay is T1, glucagon receptor (Homo sapiens, UniProt P47871).
T1 construct: expressed in transfected cells; host or cells: HEK293
Put plainly: Functional assay-cAMP synthesis, luciferase reporter in HEK293 cells co-transfected with glucagon receptor. Particulars: for EC50: Glucagon Receptor EC50(nM), Table 10, GLP-1 17-26 glucagon analogs; for Parent w/PEG % Potency Relative to Native GR / Parent w/o PEG % Potency Relative to Native GR: Table 12; for Parent w/PEG % Potency Relative to Native GR: pegylated peptide; for Parent w/o PEG % Potency Relative to Native GR: peptide without PEG. The class given is cell-based. In general terms: A reporter such as luciferase makes a cellular process visible.

The next assay addresses T2, GLP-1 receptor (Homo sapiens, UniProt P43220).
T2 construct: expressed in transfected cells; host or cells: HEK293
As to the kind of experiment: Functional assay-cAMP synthesis, luciferase reporter in HEK293 cells co-transfected with GLP-1 receptor. It is filed as cell-based.

pEC50: −log10 of the molar value. Read-outs that look alike come from different tables or passages of the source. Where a SMILES comes first, the peptide text is derived from it. Bridges are numbered along the chain shown (N, C = ends). Where no end group is shown, it is not given here. [ ]: non-standard residue; d: D form. DMIA = not defined here; PEG = not defined here; Aib = CC(C)(N)C(=O)O

From patent US8900593B2 (Indiana University Research and Technology Corporation, priority 2007, dated 2014) come the findings set out here.

T1 sequence (P47871 26-477): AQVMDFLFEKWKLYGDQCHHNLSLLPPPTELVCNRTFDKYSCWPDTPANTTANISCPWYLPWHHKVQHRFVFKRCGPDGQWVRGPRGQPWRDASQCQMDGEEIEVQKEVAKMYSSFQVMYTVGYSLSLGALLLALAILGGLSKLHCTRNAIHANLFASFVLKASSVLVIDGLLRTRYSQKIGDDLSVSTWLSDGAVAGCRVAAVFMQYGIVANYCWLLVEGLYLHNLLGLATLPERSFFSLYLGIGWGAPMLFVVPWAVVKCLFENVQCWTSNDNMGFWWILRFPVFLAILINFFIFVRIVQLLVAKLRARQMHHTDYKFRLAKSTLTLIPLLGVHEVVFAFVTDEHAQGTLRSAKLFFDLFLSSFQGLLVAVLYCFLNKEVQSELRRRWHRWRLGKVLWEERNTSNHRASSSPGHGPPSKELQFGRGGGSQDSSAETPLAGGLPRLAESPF
T2 sequence (P43220 24-463, species assumed): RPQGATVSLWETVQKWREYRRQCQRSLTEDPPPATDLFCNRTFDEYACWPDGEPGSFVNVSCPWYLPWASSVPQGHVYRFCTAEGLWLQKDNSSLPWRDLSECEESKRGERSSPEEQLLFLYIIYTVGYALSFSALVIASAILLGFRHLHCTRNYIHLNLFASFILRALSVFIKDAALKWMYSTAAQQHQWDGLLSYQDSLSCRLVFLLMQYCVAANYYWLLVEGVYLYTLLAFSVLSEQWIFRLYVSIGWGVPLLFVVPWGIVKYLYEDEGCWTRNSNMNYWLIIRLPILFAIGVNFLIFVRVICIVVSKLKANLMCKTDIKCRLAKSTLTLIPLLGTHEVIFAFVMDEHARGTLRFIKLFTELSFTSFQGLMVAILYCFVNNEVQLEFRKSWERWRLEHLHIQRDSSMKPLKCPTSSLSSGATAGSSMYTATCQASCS

Usually EC50 stands for the concentration that produces a half-maximal response. A high value points to weaker potency. By pEC50 is commonly meant the EC50 on a negative log10 scale, so that one unit is a factor of ten. On glucagon receptor, “HSQGTFTSDYSKYLDEQAAKEFIEWLVKG-NH2 [E16 GLP(17-29)-NH2 E24, K28]” yielded an EC50 of 0.23 nM. Also, on GLP-1 receptor, the pEC50 was 11.15.
As to “HX2QGT FTSDY SKYLD EQAAK EFIC*W LMNGG PSSGA PPPSa (H[Aib]QGTFTSDYSKYLDEQAAKEFICWLMNGGPSSGAPPPS-NH2; also: optional PEG on Cys24) [X2=AIB; C* is Cys or Cys attached to PEG]”, in the assay with glucagon receptor, the “Parent w/PEG % Potency Relative to Native GR” value is given as 0.2% and the “Parent w/o PEG % Potency Relative to Native GR” value was determined as 2.5%. Also, the “Parent w/PEG % Potency Relative to Native GLP-1R” value in the assay with GLP-1 receptor (Table 12, pegylated peptide) is recorded as 95.4%. Further, in the assay with GLP-1 receptor (Table 12, peptide without PEG), the “Parent w/o PEG % Potency Relative to Native GLP-1R” value is recorded as 457.8%.
Regarding “HX2QGT FTSDY SKYLD ERAAK DFVC*W LMNGG PSSGA PPPSa (H[Aib]QGTFTSDYSKYLDERAAKDFVC(PEG)WLMNGGPSSGAPPPS-NH2; reading uncertain) [X2=AIB; C* is Cys attached to PEG in the tested form]”, the “Parent w/PEG % Potency Relative to Native GR” value with glucagon receptor was 0.1%. In addition, the “Parent w/PEG % Potency Relative to Native GLP-1R” value with GLP-1 receptor (Table 12, pegylated peptide) stood at 88.5%.
Consider “HX2QGT FTSDYSKYLDEQAAKEFIAWLMNGGPSSGAPPPSC*a (H[Aib]QGTFTSDYSKYLDEQAAKEFIAWLMNGGPSSGAPPPSC-NH2; also: optional PEG on Cys40) [X2=AIB; C* is Cys or Cys attached to PEG]”, for which, in the assay with glucagon receptor, the “Parent w/PEG % Potency Relative to Native GR” value was determined as 0.3% and the “Parent w/o PEG % Potency Relative to Native GR” value is given as 2.2%. The “Parent w/PEG % Potency Relative to Native GLP-1R” value in the assay with GLP-1 receptor (Table 12, pegylated peptide) is 68.8%. Further, in the assay with GLP-1 receptor (Table 12, peptide without PEG), the “Parent w/o PEG % Potency Relative to Native GLP-1R” value was found to be 359.1%.
Take “HSQGTFTSDYSKYLDEQAAKEFIAWLVKG-NH2 [E16 GLP(17-29)-NH2, HSQGTFTSDYSKYLDEQAAKEFIAW LVKGa]”: the response at glucagon receptor was half-maximal at 0.46 nM (EC50). Moreover, the pEC50 at GLP-1 receptor was 11.00.
Take `CSCC[C@H](NC(=O)[C@H](CC(C)C)NC(=O)[C@H](Cc1c[nH]c2ccccc12)NC(=O)[C@H](CCC(N)=O)NC(=O)[C@@H](NC(=O)[C@H](Cc1ccccc1)NC(=O)[C@H](CC(=O)O)NC(=O)[C@H](CCC(N)=O)NC(=O)[C@H](C)NC(=O)[C@H](CCCNC(=N)N)NC(=O)[C@H](CCCNC(=N)N)NC(=O)[C@H](CO)NC(=O)[C@H](CC(=O)O)NC(=O)[C@H](CC(C)C)NC(=O)[C@H](Cc1ccc(O)cc1)NC(=O)[C@H](CCCCN)NC(=O)[C@H](CO)NC(=O)[C@H](Cc1ccc(O)cc1)NC(=O)[C@H](CC(=O)O)NC(=O)[C@H](CO)NC(=O)[C@@H](NC(=O)[C@H](Cc1ccccc1)NC(=O)[C@@H](NC(=O)CNC(=O)[C@H](CCC(N)=O)NC(=O)[C@H](CO)NC(=O)[C@@H](N)Cc1c[nH]cn1)[C@@H](C)O)[C@@H](C)O)C(C)C)C(=O)N[C@@H](CCCCN)C(=O)NCC(=O)NCC(=O)N1CCC[C@H]1C(=O)N[C@@H](CO)C(=O)N[C@@H](CO)C(=O)NCC(=O)N[C@@H](C)C(=O)N1CCC[C@H]1C(=O)N1CCC[C@H]1C(=O)N1CCC[C@H]1C(=O)N[C@@H](CO)C(N)=O` [-MKGG^30 PSSGAPPPS (SEQ ID NO: 523)]: the values for the pEC50 at glucagon receptor and at GLP-1 receptor were 9.21 and 9.10, respectively. In addition, the “Glucagon Receptor Relative Potency (%)” value at glucagon receptor (Table 11, relative to glucagon (SEQ ID NO: 1) = 100) is recorded as 14%. The “GLP 1 Receptor Relative Potency (%)” value at GLP-1 receptor (Table 11, relative to GLP-1-VKGG30 (SEQ ID NO: 527) = 100) is given as 3%.
For “X1SQGT FTSDY SKYLD ERRAK DFVC*W LMNGG PSSGA PPPSa ([DMIA]SQGTFTSDYSKYLDERRAKDFVCWLMNGGPSSGAPPPS-NH2; lactam (positions not given here); not fully specified; reading uncertain) [X1=DMIA; C* is Cys or Cys attached to PEG]”, in the assay with glucagon receptor, the “Parent w/PEG % Potency Relative to Native GR” value was determined as 12.6% and the “Parent w/o PEG % Potency Relative to Native GR” value is 116.0%. For the same compound, in the assay with GLP-1 receptor, the “Parent w/PEG % Potency Relative to Native GLP-1R” value was 11.3% and the “Parent w/o PEG % Potency Relative to Native GLP-1R” value was 78.3%.
With “X1SQGT FTSDYSKYLD EQAAK EFIC*W LMNTa [Chimera DMIA1, Cys24 (SEQ ID NO: 519)]”, in the assay with glucagon receptor, the “Parent w/PEG % Potency Relative to Native GR” value amounted to 6.9% and the “Parent w/o PEG % Potency Relative to Native GR” value was found to be 28.9%. Moreover, in the assay with GLP-1 receptor (Table 12, pegylated peptide), the “Parent w/PEG % Potency Relative to Native GLP-1R” value is listed as 19.3%. For the same compound, the “Parent w/o PEG % Potency Relative to Native GLP-1R” value with GLP-1 receptor (Table 12, peptide without PEG) stood at 64.5%.
For the compound “HX2QGT FTSDYSKYLDEQAAKEFIAWLMNGGPSSGAPPPSC*a (H[Aib]QGTFTSDYSKYLDEQAAKEFIAWLMNGGPSSGAPPPSC-NH2; lactam (positions not given here); also: optional PEG on Cys40) [X2=AIB; C* is Cys or Cys attached to PEG]”, in the assay with glucagon receptor, the “Parent w/PEG % Potency Relative to Native GR” value is 3.2% and the “Parent w/o PEG % Potency Relative to Native GR” value is given as 14.2%. Further, in the assay with GLP-1 receptor, the “Parent w/PEG % Potency Relative to Native GLP-1R” value was found to be 63.6% and the “Parent w/o PEG % Potency Relative to Native GLP-1R” value is 169.6%.
For the compound “HSEGTFTSDYSKYLDERRAQDFVQW LMNTa (HSEGTFTSDYSKYLDERRAQDFVQWLMNT-NH2) [E3, E16 Gluc-NH2]”, the “Percent Potency Relative to Native Ligand GRec” value in the assay with glucagon receptor (Table 4, relative to native glucagon) was found to be 1.6%. In the assay with GLP-1 receptor (Table 4, relative to native GLP-1), the “Percent Potency Relative to Native Ligand GLP-1Rec” value was 28.8%.
In the case of “HX2QGT FTSDY SKYLD ERAAK DFVC*W LMNTa (H[Aib]QGTFTSDYSKYLDERAAKDFVC(PEG)WLMNT-NH2; reading uncertain) [E16, K20AIB2, A18 Cys24 (SEQ ID NO: 492), X2=AIB; C* is Cys attached to PEG in the tested form]”, in the assay with glucagon receptor, the “Parent w/PEG % Potency Relative to Native GR” value is listed as 1.1%. Moreover, in the assay with GLP-1 receptor (Table 12, pegylated peptide), the “Parent w/PEG % Potency Relative to Native GLP-1R” value came out at 73.5%.
Regarding `CC[C@H](C)[C@H](NC(=O)[C@H](Cc1ccccc1)NC(=O)[C@H](CCC(=O)O)NC(=O)[C@H](CCCCN)NC(=O)[C@H](C)NC(=O)[C@H](C)NC(=O)[C@H](CCC(N)=O)NC(=O)[C@H](CCC(=O)O)NC(=O)[C@H](CC(=O)O)NC(=O)[C@H](CC(C)C)NC(=O)[C@H](Cc1ccc(O)cc1)NC(=O)[C@H](CCCCN)NC(=O)[C@H](CO)NC(=O)[C@H](Cc1ccc(O)cc1)NC(=O)[C@H](CC(=O)O)NC(=O)[C@H](CO)NC(=O)[C@@H](NC(=O)[C@H](Cc1ccccc1)NC(=O)[C@@H](NC(=O)CNC(=O)[C@H](CCC(N)=O)NC(=O)[C@H](CO)NC(=O)[C@@H](N)Cc1c[nH]cn1)[C@@H](C)O)[C@@H](C)O)C(=O)N[C@H]1CCC(=O)NCCCC[C@@H](C(=O)NCC(N)=O)NC(=O)[C@H](C(C)C)NC(=O)[C@H](CC(C)C)NC(=O)[C@H](Cc2c[nH]c3ccccc23)NC1=O` [E16 GLP(17-29)-NH2 E24, K28 Lactam] (H-HSQGTFTSDYSKYLDEQAAKEFIEWLVKG-NH2; lactam 24-28; N-terminus assumed), the EC50 on glucagon receptor came to 0.16 nM. The pEC50 at GLP-1 receptor is 11.15.
In the case of “HX2QGT FTSDY SKYLD EQAAK EFIC*W LMNGG PSSGA PPPSa (H[Aib]QGTFTSDYSKYLDEQAAKEFICWLMNGGPSSGAPPPS-NH2; lactam (positions not given here); also: optional PEG on Cys24) [X2=AIB; C* is Cys or Cys attached to PEG]”, in the assay with glucagon receptor, the “Parent w/PEG % Potency Relative to Native GR” value was found to be 1.4% and the “Parent w/o PEG % Potency Relative to Native GR” value turned out to be 25.2%. In the assay with GLP-1 receptor, the “Parent w/PEG % Potency Relative to Native GLP-1R” value amounted to 96.4% and the “Parent w/o PEG % Potency Relative to Native GLP-1R” value is recorded as 381.5%.
As to “HX2QGT FTSDYSKYLDEQAAKEFIAWLMNC*a (H[Aib]QGTFTSDYSKYLDEQAAKEFIAWLMNC-NH2; also: optional PEG on Cys29) [Chimera AIB2, Cys29 (SEQ ID NO: 487), X2=AIB; C* is Cys or Cys attached to PEG]”, in the assay with glucagon receptor, the “Parent w/PEG % Potency Relative to Native GR” value is listed as 5.6% and the “Parent w/o PEG % Potency Relative to Native GR” value came out at 20.1%. The “Parent w/PEG % Potency Relative to Native GLP-1R” value with GLP-1 receptor (Table 12, pegylated peptide) was 54.3%. Moreover, the “Parent w/o PEG % Potency Relative to Native GLP-1R” value with GLP-1 receptor (Table 12, peptide without PEG) amounted to 124.6%.
